Patent publication US20240226314A1 (Sanofi, published 2024)
Read-outs that look alike come from different tables or passages of the source.

Assays:
[1] = target: T1, His-tagged cynomolgus monkey TfR ectodomain (cyTFRC_89_760; mature protein) (cynomolgus monkey (Macaca fascicularis), UniProt Q5RDH6 89-760 (Pongo abelii entry)); assay: SPR; KD on cTfR against KD on hTfR
T1 construct: also called cTfR; cTfR ectodomain
T1 chain: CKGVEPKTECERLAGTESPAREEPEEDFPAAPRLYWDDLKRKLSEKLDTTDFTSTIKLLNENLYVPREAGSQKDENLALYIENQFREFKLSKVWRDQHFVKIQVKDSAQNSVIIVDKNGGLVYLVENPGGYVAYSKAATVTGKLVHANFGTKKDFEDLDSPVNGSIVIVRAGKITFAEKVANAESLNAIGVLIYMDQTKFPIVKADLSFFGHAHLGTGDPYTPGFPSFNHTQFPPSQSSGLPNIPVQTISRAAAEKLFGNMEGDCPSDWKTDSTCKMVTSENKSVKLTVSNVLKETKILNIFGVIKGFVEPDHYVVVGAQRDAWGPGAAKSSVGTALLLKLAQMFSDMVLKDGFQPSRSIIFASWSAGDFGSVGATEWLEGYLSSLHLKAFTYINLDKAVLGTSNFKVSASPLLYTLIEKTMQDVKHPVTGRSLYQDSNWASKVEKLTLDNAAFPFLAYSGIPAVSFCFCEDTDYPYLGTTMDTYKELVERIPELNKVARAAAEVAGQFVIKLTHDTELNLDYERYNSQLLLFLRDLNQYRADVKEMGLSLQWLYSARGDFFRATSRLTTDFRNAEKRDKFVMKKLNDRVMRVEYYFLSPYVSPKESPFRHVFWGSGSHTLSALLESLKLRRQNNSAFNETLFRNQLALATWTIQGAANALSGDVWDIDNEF
Method: (§1) Experiments were run on Bruker MASS-2 instrument with HBS-EP+ as running buffer and sample diluent (Cytiva Life Sciences, #BR100826). HCA sensorchips (Bruker, #1862614) were immobilized with anti his antibody (His capture kit, Cytiva Life Sciences, #28995056) following provider's instructions. About 10 000 RU of anti his was obtained. […] Surface was regenerated with one 1 min pulse of 10 mM Glycine-HCl pH1.5.

[2] = target: T1, His-tagged cynomolgus monkey TfR …; assay: SPR; KD on cTfR against KD on hTfR
Method: (§2) Binding of the humanized Fab variants to human, cynomolgus and mouse TfR was assessed using SPR at pH 7.4. Experiments were run on a Bruker MASS-2 instrument with HBS-EP+ as running buffer and sample diluent (Cytiva Life Sciences, #BR100826). HCA sensor chips (Bruker, #1862614) were immobilized with anti-His antibody (His capture kit, Cytiva Life Sciences, #28995056) following manufacturer's instructions. About 10,000 RU of anti-His was obtained. His-tagged hTfR ectodomain (SEQ ID NO: 39), cTfR ectodomain (SEQ ID NO: 40) or mouse TfR ectodomain (SEQ ID NO: 41) (5 μg/ml) was captured for 1 min at 10 μL/min. Concentration series of the humanized Fab variants were then injected for 4 min at 30 μL/min over hTfR surfaces and dissociation was monitored for 5 min. Surface was regenerated with one 1 min pulse of 10 mM glycine-HCl at pH 1.5.

[3] = target: His-tagged mouse TfR ectodomain (mTFRC_89_764; mature protein) (mouse, UniProt Q62351 89-763); assay: SPR, His-tagged mTfR ectodomain captured on anti-His
Sequence of His-tagged mouse TfR ectodomain (mTFRC_89_764; mature protein) (Q62351 other isoform, or with tags, fused parts or gaps): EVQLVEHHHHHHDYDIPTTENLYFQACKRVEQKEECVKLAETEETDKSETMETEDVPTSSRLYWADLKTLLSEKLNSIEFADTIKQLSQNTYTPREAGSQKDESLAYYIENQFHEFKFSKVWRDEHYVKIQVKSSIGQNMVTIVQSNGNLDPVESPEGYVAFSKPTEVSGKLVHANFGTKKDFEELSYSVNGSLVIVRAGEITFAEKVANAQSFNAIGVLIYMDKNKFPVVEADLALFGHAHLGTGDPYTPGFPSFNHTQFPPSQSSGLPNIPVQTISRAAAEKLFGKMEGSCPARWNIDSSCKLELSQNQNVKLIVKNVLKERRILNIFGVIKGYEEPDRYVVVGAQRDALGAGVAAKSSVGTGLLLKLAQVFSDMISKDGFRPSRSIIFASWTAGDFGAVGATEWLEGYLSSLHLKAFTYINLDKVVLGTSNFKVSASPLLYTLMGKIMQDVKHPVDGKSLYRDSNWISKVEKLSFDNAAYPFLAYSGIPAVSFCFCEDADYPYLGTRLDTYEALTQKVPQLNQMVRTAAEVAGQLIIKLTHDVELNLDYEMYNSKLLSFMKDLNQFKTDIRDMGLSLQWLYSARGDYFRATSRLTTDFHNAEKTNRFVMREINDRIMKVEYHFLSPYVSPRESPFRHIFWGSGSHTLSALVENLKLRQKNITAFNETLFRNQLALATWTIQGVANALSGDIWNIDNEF
Method: as §1

[4] = target: T2, His-tagged human TfR ectodomain (hTFRC_89-760_G142S; mature protein) (human, UniProt P02786 89-760); assay: SPR, His-tagged TfR ectodomain captured on anti-His, 1:1 fit
T2 construct: It carries the G142S haplotype; also called hTfR ectodomain
Method: as §1

[5] = target: T1, His-tagged cynomolgus monkey TfR …; assay: as above
Method: as §1

[6] = target: T2, His-tagged human TfR ectodomain …; assay: as above; remark: listed apart in the source
Method: as §2

[7] = target: T1, His-tagged cynomolgus monkey TfR …; assay: as above
Method: as §2

B1: 531-1L2_mouse mAb (antibody, IgG1, V domains shown)
VH: QVQLQQPGAELVSPGASVKLSCKASDYTFTRYWLNWVKQRPGQGLEWIGMIDPSVSECHYSQMFKDKATLTVDKSSSTAYMLLNSLTSEDSAVYYCSQIRLPYYYAMDSWGQGTSVTVSS
VL: DIQMTQTPSSLSASLGDRVTISCRASQDINSFLNWYQQKPDGTVKLLIYYTSRLHSGVPSRFSGSGSGTDYSLTIGNLDQEDIATYFCQQGNTLPRTFGGGTKLELK
notes: constant regions are not
**Q.** For B1, which “Cynomolgus/human KD ratio” value [1] is on record?
**A.** The value was 3.9.

**Q.** What about the “Cynomolgus/human KD ratio” value [2] of the same binder?
**A.** The value was 3.9.

**Q.** Does B1 bind [3]?
**A.** Result: no binding

**Q.** And the Kd [4]?
**A.** Its Kd is 6.9 nM.

**Q.** What about the Kd [5] of the same binder?
**A.** Its Kd is 27 nM.

**Q.** What about the Kd [6] of the same binder?
**A.** The Kd was 6.93 nM.

**Q.** What about the Kd [7] of the same binder?
**A.** The Kd was 27 nM.
